Experimental data as given in patent US20180312579A1 (Genentech, published 2018).

T1: human RSPO2 L186P variant (human, UniProt Q6UXX9 22-243)
T1 chain: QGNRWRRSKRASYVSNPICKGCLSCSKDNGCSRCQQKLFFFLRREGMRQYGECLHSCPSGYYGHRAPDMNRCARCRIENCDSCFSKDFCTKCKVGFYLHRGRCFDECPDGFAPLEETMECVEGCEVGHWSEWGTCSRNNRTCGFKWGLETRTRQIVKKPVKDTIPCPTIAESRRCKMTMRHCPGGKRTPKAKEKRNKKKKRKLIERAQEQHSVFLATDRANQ

T2: recombinant human RSPO3 (human, UniProt Q9BXY4 22-272)
T2 sequence: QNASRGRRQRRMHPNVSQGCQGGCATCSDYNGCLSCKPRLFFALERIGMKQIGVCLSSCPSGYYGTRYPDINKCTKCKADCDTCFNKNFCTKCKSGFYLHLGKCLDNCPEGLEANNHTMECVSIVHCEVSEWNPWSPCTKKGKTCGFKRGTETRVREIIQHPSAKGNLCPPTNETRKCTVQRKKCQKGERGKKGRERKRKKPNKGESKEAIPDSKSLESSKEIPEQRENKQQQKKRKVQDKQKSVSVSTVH

T3: cynomolgus RSPO3 (cynomolgus, UniProt A0A2K5UTQ7 22-273)
T3 sequence: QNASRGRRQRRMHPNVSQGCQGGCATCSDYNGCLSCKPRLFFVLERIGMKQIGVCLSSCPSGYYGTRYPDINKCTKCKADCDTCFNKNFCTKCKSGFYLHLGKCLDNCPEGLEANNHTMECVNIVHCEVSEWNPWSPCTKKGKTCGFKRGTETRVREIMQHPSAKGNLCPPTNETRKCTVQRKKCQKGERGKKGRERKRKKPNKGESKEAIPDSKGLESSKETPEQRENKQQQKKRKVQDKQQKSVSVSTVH

T4: mouse RSPO3 (mouse, UniProt Q2TJ95 22-277, limits assumed)
T4 sequence (looked up): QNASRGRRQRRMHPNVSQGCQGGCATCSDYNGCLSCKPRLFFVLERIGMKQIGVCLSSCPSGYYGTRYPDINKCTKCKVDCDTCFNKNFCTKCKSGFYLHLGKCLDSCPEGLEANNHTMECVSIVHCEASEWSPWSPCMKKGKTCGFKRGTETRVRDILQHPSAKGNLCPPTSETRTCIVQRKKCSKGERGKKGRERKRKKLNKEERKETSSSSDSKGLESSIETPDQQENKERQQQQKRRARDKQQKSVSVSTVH

T5: human RSPO3 with C-terminal HA tag, stably expressed in 293 cells (human, UniProt Q9BXY4 22-272)
T5 construct: Whole open reading frame expressed in HEK-293 cells (high, medium, low); FFPE pellets; also called hRSPO3; RSPO3 Hi
T5 sequence: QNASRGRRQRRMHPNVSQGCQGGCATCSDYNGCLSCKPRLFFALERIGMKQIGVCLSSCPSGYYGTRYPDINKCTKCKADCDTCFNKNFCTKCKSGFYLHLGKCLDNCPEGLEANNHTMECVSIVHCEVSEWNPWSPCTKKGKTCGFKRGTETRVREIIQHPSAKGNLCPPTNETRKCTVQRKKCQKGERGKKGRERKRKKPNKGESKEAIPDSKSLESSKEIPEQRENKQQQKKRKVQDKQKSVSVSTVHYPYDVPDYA

T6: FLAG-tagged human RSPO3 (Genentech) (human, UniProt Q9BXY4 22-272)
T6 construct: also called hRSPO3; RSPO3 coated plates; not shown: FLAG tag
T6 sequence: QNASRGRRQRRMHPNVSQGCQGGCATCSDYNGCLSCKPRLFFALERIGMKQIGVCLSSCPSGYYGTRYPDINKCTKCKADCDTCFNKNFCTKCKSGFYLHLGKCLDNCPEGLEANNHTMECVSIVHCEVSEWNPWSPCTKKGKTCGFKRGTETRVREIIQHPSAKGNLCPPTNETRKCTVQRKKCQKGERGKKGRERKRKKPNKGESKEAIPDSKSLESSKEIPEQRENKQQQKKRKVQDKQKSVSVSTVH


What was measured:
[1] = molecular target: T7, human RSPO2 with C-terminal HA tag, stably expressed in 293 cells (human, UniProt Q6UXX9 22-243); experiment: IHC, FFPE 293 cell pellet, RSPO2 Hi
T7 construct: Whole open reading frame was expressed from a lentiviral vector in HEK-293 cells sorted for high, medium or low expression; formalin-fixed paraffin-embedded pellets; also called hRSPO2; RSPO2 Hi

[2] = molecular target: T1, human RSPO2 L186P variant; experiment: cell-based or functional assay
[3] = molecular target: T7, human RSPO2 with C-terminal HA tag, …; experiment: IHC, FFPE 293 cell pellet, RSPO2 Low
[4] = molecular target: T2, recombinant human RSPO3; experiment: cell-based or functional assay
[5] = molecular target: T3, cynomolgus RSPO3; experiment: cell-based or functional assay
[6] = molecular target: recombinant human RSPO2 (human, UniProt Q6UXX9 22-243); experiment: cell-based or functional assay
[7] = molecular target: mouse RSPO2 (mouse, UniProt Q8BFU0 22-205, limits assumed); experiment: cell-based or functional assay
[8] = molecular target: cynomolgus RSPO2 (cynomolgus, UniProt G7PCH9 22-243); experiment: cell-based or functional assay
[9] = molecular target: T4, mouse RSPO3; experiment: cell-based or functional assay
[10] = molecular target: T8, FLAG-tagged human RSPO2 (Genentech) (human, UniProt Q6UXX9 22-243); experiment: competitive binding ELISA: titrated against biotinylated RNF43-Flag (RNF43-ECD) binding to plate-coated hRSPO2; signal = bound RNF43, normalized OD
T8 construct: also called hRSPO2; RSPO2 coated plates; not shown: FLAG tag

[11] = molecular target: T7, human RSPO2 with C-terminal HA tag, …; experiment: IHC, FFPE 293 cell pellet, RSPO2 Med
[12] = molecular target: T9, human RSPO1 with C-terminal HA tag, stably expressed in 293 cells (human, UniProt Q2MKA7 21-263); experiment: IHC, FFPE 293 cell pellet, RSPO1 Hi; - = not significant staining
T9 construct: also called hRSPO1; RSPO1 Hi

[13] = molecular target: T10, human RSPO4 with C-terminal HA tag, stably expressed in 293 cells (human, UniProt Q2I0M5 20-234); experiment: IHC, FFPE 293 cell pellet, RSPO4 Hi; - = not significant staining
T10 construct: also called hRSPO4; RSPO4 Hi

[14] = molecular target: T5, human RSPO3 with C-terminal HA tag, …; experiment: IHC, FFPE 293 cell pellet, RSPO3 Hi; - = not significant staining
[15] = molecular target: T8, FLAG-tagged human RSPO2 (Genentech); experiment: competitive binding ELISA: antibody titrated against LGR4-Fc (LGR4-ECD) binding to plate-coated hRSPO2; signal = bound LGR4-Fc, OD(450/630)/OD no antibody
Protocol: (§1) To measure the activity of anti-RSPO antibodies in blocking the binding of LGR4 and -5 ECDs to RSPOs, MaxiSorp 384-well microwell plates (Thermo Scientific Nunc, Roskilde, Denmark) were coated with 25 ul/well of 0.5 μg/ml hRSPO2 or hRSPO3 (Genentech) in 50 mM carbonate buffer, pH 9.6, overnight at 4° C. Plates were blocked with at 80 ul/well of 0.5% bovine serum albumin, 15 parts per million Proclin 300 in phosphate buffered saline (PBS), pH 7.4, for 1 hour. Serially diluted anti-RSPO antibodies ([…] in […] serial dilution plus buffer blank) containing 0.1 μg/ml LGR4-Fc or 0.015 μg/ml LGR5-Fc in assay buffer (0.5% BSA, 0.05% polysorbate 20, 15 parts per million Proclin 300 in PBS) were added to the plates at 25 ul/well. After a 2-hour incubation, LGR4-Fc and LGR5-Fc bound to the plates were detected using peroxidase labeled goat F(ab′)2 anti-human Fc (Jackson ImmunoResearch, West Grove, Pa.). After a 1 hour incubation, the substrate 3,3′,5,5′-tetramethyl benzidine (Moss Inc., Pasadena, Md.) was added to the plates and the reaction was stopped by adding 1 M phosphoric acid. Plates were washed with PBS, pH 7.4, containing 0.05% tween 20, between steps and all the incubation steps following the coating step were performed at room temperature on an orbital shaker. Absorbance was read at 450 nm on a multiskan Ascent reader (Thermo Scientific, Hudson, N.H.).

[16] = molecular target: T6, FLAG-tagged human RSPO3 (Genentech); experiment: competitive binding ELISA: titrated against biotinylated RNF43-Flag (RNF43-ECD) binding to plate-coated hRSPO3; signal = bound RNF43, normalized OD
[17] = molecular target: T5, human RSPO3 with C-terminal HA tag, …; experiment: IHC, FFPE 293 cell pellet, RSPO3 Hi
[18] = molecular target: T5, human RSPO3 with C-terminal HA tag, …; experiment: IHC, FFPE 293 cell pellet, RSPO3 Low
[19] = molecular target: T5, human RSPO3 with C-terminal HA tag, …; experiment: IHC, FFPE 293 cell pellet, RSPO3 Med
[20] = molecular target: T6, FLAG-tagged human RSPO3 (Genentech); experiment: competitive binding ELISA: antibody titrated against LGR4-Fc (LGR4-ECD) binding to plate-coated hRSPO3; signal = bound LGR4-Fc, OD(450/630)/OD no antibody
Protocol: as §1

T9 sequence (Q2MKA7 other isoform, or with tags, fused parts or gaps limits assumed): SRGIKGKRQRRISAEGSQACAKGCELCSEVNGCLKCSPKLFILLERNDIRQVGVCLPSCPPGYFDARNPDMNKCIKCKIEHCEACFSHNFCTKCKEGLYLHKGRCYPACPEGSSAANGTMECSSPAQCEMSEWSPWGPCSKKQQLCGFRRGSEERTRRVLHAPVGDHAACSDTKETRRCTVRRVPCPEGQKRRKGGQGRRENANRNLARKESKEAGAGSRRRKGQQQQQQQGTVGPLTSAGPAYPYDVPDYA
Chain of mouse RSPO2 (Q8BFU0 22-205 limits assumed): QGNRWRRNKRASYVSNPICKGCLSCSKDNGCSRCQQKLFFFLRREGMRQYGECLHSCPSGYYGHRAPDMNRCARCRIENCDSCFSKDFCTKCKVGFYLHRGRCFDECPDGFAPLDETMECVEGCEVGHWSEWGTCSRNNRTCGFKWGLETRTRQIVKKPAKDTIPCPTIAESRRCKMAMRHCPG
T10 sequence (Q2I0M5 other isoform, or with tags, fused parts or gaps limits assumed): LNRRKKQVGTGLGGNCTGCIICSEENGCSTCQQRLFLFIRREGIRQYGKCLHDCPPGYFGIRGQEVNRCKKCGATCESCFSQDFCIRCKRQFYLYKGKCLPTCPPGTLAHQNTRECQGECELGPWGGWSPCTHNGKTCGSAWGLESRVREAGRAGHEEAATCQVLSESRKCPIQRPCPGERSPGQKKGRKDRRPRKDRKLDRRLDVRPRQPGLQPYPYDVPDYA

Binder | percentage of cells staining [1] [%] | IC50 (read off the curve), WNT reporter RLU stimulated by 38 pM rhRSPO2 L186P [2] [pM] | percentage of cells staining [3] [%] | IC50, WNT luciferase reporter, bivalent antibody [4] [nM] | IC50, WNT luciferase reporter, bivalent antibody [5] [nM] | IC50, WNT luciferase reporter, bivalent antibody [6] [nM] | IC50, WNT luciferase reporter, bivalent antibody [7] [nM] | IC50, WNT luciferase reporter, bivalent antibody [8] [nM] | IC50, WNT luciferase reporter, bivalent antibody [9] [nM] | IC50 (read off the curve) [10] [mg/L] | percentage of cells staining [11] [%] | binding result [12] | binding result [13] | binding result [14] | IC50 (read off the curve) [15] [mg/L] | IC50 (read off the curve) [16] [mg/L] | percentage of cells staining [17] [%] | percentage of cells staining [18] [%] | percentage of cells staining [19] [%] | IC50 (read off the curve) [20] [mg/L]
36D2 (antibody, V domains shown, also called monoclonal antibody 36D2) VH: QIQLQESGPGLVKPSQSLSLTCSVTGNSITSSDWSWIRQFPGKKLEWMGYMNYGGGTYYNPSLENRISITRDTSKNQFFLHLKSVTTEDTATYYCARERPHPYAYFDVWGQGIQVTVSS VL: ELVFTQPQSVSGSLGQEISISCTRSSGNIGSNYVSWYQQQSSNKPRLLIYKFDQRPSGVPDRFSGSTDSSSNSGILTISRLQPEDEGDYYCLSGYDKYVFGSGTQLTLL | > 95 | ~20 | < 5 | > 500 | > 500 | 0.012 | 0.044 | 0.013 | > 500 | ~1 | 50 | no binding | no binding | no binding |  |  |  |  |  | 
49G5 (antibody, V domains shown, also called monoclonal antibody 49G5) VH: QVQLKESGPGLVQPSQTLSLTCTVSGFSLTSYNIHWVRQPPGKGLEWMGAVWRGGGTYYNSNLKSRVIITRDTSKSQVLLKLNNLQHEDTAMYYCAREELRYVYFDVWGQGIQVTVSS VL: QPLLTQSPSVSASLGASVKLTCTLSSQYNTYYIEWYQQHPDKSPKFLMQLSDGSHSKGDGIPDRFSGSSSGAHRYLSISNLQLEDEAIYYCGVSDVSLYVFGSGTQLTVL | 95 |  | 40 |  |  |  |  |  |  |  | 60 | no binding | no binding | no binding |  |  |  |  |  | 
11F11 (antibody, V domains shown, also called monoclonal antibody 11F11) VH: QVQLQQSGPQLVKPGFSVKFSCKASGITFTEYYVTWVKQRAGQGLEWVGDIDPENGDTDYNQKFQGKATITADKSSSTAYMELSSLTSEDSAVYYCATGYDYAFDSWGQGTLVTVSS VL: QPVLTQSPSASASLGASVKLTCTLSSQHSSYGITWLQQHPDKAPKCVMYLRSDGSHSKGDGIPDRFSGSSSGAHRYLSISNVQPEDEAIYFCVTYDSTVGVFGSGTQLTVP |  |  |  | > 500 | > 500 | 0.179 | > 500 | 1.9 | > 500 |  |  |  |  | no binding |  |  |  |  |  | 
26E11 (antibody, V domains shown, also called monoclonal antibody 26E11; anti-RSPO2/3 antibody) VH: EVQLQESGPSLVKPSQTLSLTCSVTGDSITSGYWSWIRKFPGNKLEFMGYISFSGKTYYIPSLKSRVSITRDTSKNQYYLQLNSVTTEDTATYYCATYHGYGGPWFAYWGQGTLVTVSS VL: DIKMTQSPSSMYASLGERVTITCKASQDIDSYLSWFQQKPGKSPKTLIYLTNRLIDGVPSRFSGSGSGQDYSLTINSLEYEDMGIYYCLQYDEFPVTFGAGTRLEIK | 70 |  | 10 | 1e-05 | 0.0002 | 9.8 | 24 | 2.7 | 0.0004 | ~0.1 | 40 | no binding | no binding |  | ~0.09 | ~0.08 | 90 | 50 | 70 | ~0.1
